Assay results as given in patent US20190170753A1 (ICAHN SCHOOL OF MEDICINE AT MOUNT SINAI, published 2019).

How the values were obtained:
Assay in all cases: peptide EIA, 2 ug/mL IgG;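 also: purified mouse IgG binding to individually well-coated synthetic peptides, detected with peroxidase anti-mouse IgG Fc and o-phenylenediamine, IgG incubated at least 1 h at room temperature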
[1] = biological target: T1, HCV core peptide 53 (hepatitis C virus, HELM PEPTIDE1{[O=C1N[C@H]2[C@H](CS[C@H]2CCCCC(=O)[*:2])N1].S.G.S.G.P.S.W.G.P.T.D.P.R.R.R.S.R.N.L.[am]}$$$$V2.0; SMILES …)
T1 peptide: SGSGPSWGPTDPRRRSRNL
Experimental: (§1) The coated plates were kept dry in a sealed foil pouch and stored at <10 degrees C. until ready for use. A peptide coated plate for each test antibody was blocked using 3% BSA in PBS with 0.5% Tween 20. The blocked plates were washed with distilled water and a 2 ug/mL solution of purified IgG from each test sample diluted in BSA block solution was added to each peptide coated well of the blocked plate and allowed to incubate at room temperature for at least one hour. Following incubation the plates were washed with distilled water. A 200 ng/mL solution of peroxidase labeled F(ab′)2 fragment goat anti-mouse IgG Fc fragment specific (Jackson Immunoresearch) in BSA block solution was added to all wells and incubated at room temperature for 30 minutes. The plates were washed with distilled water and o-phenylenediamine substrate was used as the chromagen to generate signal. Plates were read at 492 nm and the results were analyzed.

[2] = biological target: T2, HCV core peptide 20 (hepatitis C virus, N-terminal biotin; C-terminal amide)
T2 construct: range 39-53
Experimental: as §1

[3] = biological target: T3, HCV core peptide 38 (hepatitis C virus, N-terminal biotin; C-terminal amide)
T3 construct: range 75-89
Experimental: as §1

[4] = biological target: T4, HCV core peptide 10 (hepatitis C virus, N-terminal biotin; C-terminal amide)
T4 construct: range 19-33
Experimental: as §1

[5] = biological target: T5, HCV core peptide 11 (hepatitis C virus, N-terminal biotin; C-terminal amide)
T5 construct: range 21-35
Experimental: as §1

[6] = biological target: T6, HCV core peptide 39 (hepatitis C virus, N-terminal biotin; C-terminal amide)
T6 construct: range 77-91
Experimental: as §1

[7] = biological target: T7, HCV core peptide 33 (hepatitis C virus, N-terminal biotin; C-terminal amide)
T7 construct: range 65-79
Experimental: as §1

[8] = biological target: T8, HCV core peptide 30 (hepatitis C virus, N-terminal biotin; C-terminal amide)
T8 construct: range 59-73
Experimental: as §1

[9] = biological target: T9, HCV core peptide 62 (hepatitis C virus, N-terminal biotin; C-terminal amide)
T9 construct: range 123-137
Experimental: as §1

[10] = biological target: T10, HCV core peptide 72 (hepatitis C virus, N-terminal biotin; C-terminal amide)
T10 construct: range 143-157
Experimental: as §1

[11] = biological target: HCV core peptide 45 (hepatitis C virus, N-terminal biotin; C-terminal amide)
Experimental: as §1

[12] = biological target: T11, HCV core peptide 28 (hepatitis C virus, N-terminal biotin; C-terminal amide)
T11 construct: range 55-69
Experimental: as §1

[13] = biological target: T12, HCV core peptide 12 (hepatitis C virus, N-terminal biotin; C-terminal amide)
T12 construct: range 23-37
Experimental: as §1

[14] = biological target: T13, HCV core peptide 51 (hepatitis C virus, HELM PEPTIDE1{[O=C1N[C@H]2[C@H](CS[C@H]2CCCCC(=O)[*:2])N1].S.G.S.G.R.G.S.R.P.S.W.G.P.T.D.P.R.R.R.[am]}$$$$V2.0; SMILES …)
T13 peptide: SGSGRGSRPSWGPTDPRRR
Experimental: as §1

[15] = biological target: T14, HCV core peptide 79 (hepatitis C virus, N-terminal biotin; C-terminal amide)
T14 construct: range 157-171
Experimental: as §1

[16] = biological target: HCV core peptide 74 (hepatitis C virus, N-terminal biotin; C-terminal amide)
Experimental: as §1

[17] = biological target: T15, HCV core peptide 35 (hepatitis C virus, N-terminal biotin; C-terminal amide)
T15 construct: range 69-83
Experimental: as §1

[18] = biological target: T16, HCV core peptide 61 (hepatitis C virus, N-terminal biotin; C-terminal amide)
T16 construct: range 121-135
Experimental: as §1

[19] = biological target: T17, HCV core peptide 23 (hepatitis C virus, N-terminal biotin; C-terminal amide)
T17 construct: range 45-59
Experimental: as §1

[20] = biological target: HCV core peptide 44 (hepatitis C virus, N-terminal biotin; C-terminal amide)
Experimental: as §1

[21] = biological target: HCV core peptide 78 (hepatitis C virus, N-terminal biotin; C-terminal amide)
Experimental: as §1

[22] = biological target: HCV core peptide 88 (hepatitis C virus, N-terminal biotin; C-terminal amide)
Experimental: as §1

[23] = biological target: T18, HCV core peptide 42 (hepatitis C virus, N-terminal biotin; C-terminal amide)
T18 construct: range 83-97
Experimental: as §1

[24] = biological target: HCV core peptide 57 (hepatitis C virus, N-terminal biotin; C-terminal amide)
Experimental: as §1

[25] = biological target: T19, HCV core peptide 75 (hepatitis C virus, N-terminal biotin; C-terminal amide)
T19 construct: range 149-163
Experimental: as §1

[26] = biological target: T20, HCV core peptide 5 (hepatitis C virus, N-terminal biotin; C-terminal amide)
T20 construct: range 9-23
Experimental: as §1

[27] = biological target: T21, HCV core peptide 2 (hepatitis C virus, N-terminal biotin; C-terminal amide)
T21 construct: range 3-17
Experimental: as §1

[28] = biological target: HCV core peptide 89 (hepatitis C virus, N-terminal biotin; C-terminal amide)
Experimental: as §1

[29] = biological target: T22, HCV core peptide 83 (hepatitis C virus, N-terminal biotin; C-terminal amide)
T22 construct: range 165-179
Experimental: as §1

[30] = biological target: T23, HCV core peptide 43 (hepatitis C virus, N-terminal biotin; C-terminal amide)
T23 construct: range 85-99
Experimental: as §1

[31] = biological target: T24, HCV core peptide 48 (hepatitis C virus, HELM PEPTIDE1{[O=C1N[C@H]2[C@H](CS[C@H]2CCCCC(=O)[*:2])N1].S.G.S.G.G.W.L.L.S.P.R.G.S.R.P.S.W.G.P.[am]}$$$$V2.0; SMILES …)
T24 construct: also called aa 95-109
T24 peptide: SGSGGWLLSPRGSRPSWGP
Experimental: as §1

B1: Neo4 mouse monoclonal antibody (antibody, V domains shown)
VH: QIQLKESGPAVIKPSQSLSLTCIVSGFSITSSVYCWQWIRQPPGKGLEWMGRICYDGSVDYSPSITSRGTISRDTSLNKVFFQLSSVTNEDTAMYYCSRENHIDYYDTTYPSFDVWGAGTTVTVSS
VL: DIVLTQSPASLIVSLGQRATISCRASKSVNEYGYTYMHWYQQKPGLPPKLLIYLASNLDSGVPARFSGSGSGTDFTLNIHPVEEEDAATYYCQHSRELPYTFGGGTKLEIKR
notes: Mouse hybridoma antibody, isotype IgG1, purified with Protein G; also called HCV Neo4
OD (A492 nm) [1]: 0.96 OD | OD (A492 nm) [2]: 0.05 OD | OD (A492 nm) [3]: 0.05 OD | OD (A492 nm) [4]: 0.05 OD | OD (A492 nm) [5]: 0.05 OD | OD (A492 nm) [6]: 0.05 OD | OD (A492 nm) [7]: 0.05 OD | OD (A492 nm) [8]: 0.05 OD | OD (A492 nm) [9]: 0.05 OD | OD (A492 nm) [10]: 0.04 OD | OD (A492 nm) [11]: 0.04 OD | OD (A492 nm) [12]: 0.04 OD | OD (A492 nm) [13]: 0.07 OD | OD (A492 nm) [14]: 0.96 OD | OD (A492 nm) [15]: 0.05 OD | OD (A492 nm) [16]: 0.05 OD | OD (A492 nm) [17]: 0.04 OD | OD (A492 nm) [18]: 0.05 OD | OD (A492 nm) [19]: 0.05 OD | OD (A492 nm) [20]: 0.05 OD | OD (A492 nm) [21]: 0.06 OD | OD (A492 nm) [22]: 0.05 OD | OD (A492 nm) [23]: 0.04 OD | OD (A492 nm) [24]: 0.05 OD | OD (A492 nm) [25]: 0.1 OD | OD (A492 nm) [26]: 0.05 OD | OD (A492 nm) [27]: 0.06 OD | OD (A492 nm) [28]: 0.05 OD | OD (A492 nm) [29]: 0.05 OD | OD (A492 nm) [30]: 0.05 OD | OD (A492 nm) [31]: 0.04 OD
